Publication PMC11727998, “Purification and Electron Transfer from Soluble c-Type Cytochrome TorC to TorA for Trimethylamine N-Oxide Reduction” (International Journal of Molecular Sciences, 2024)

B1: soluble TorC (heme-containing, holo-TorC) (natural protein, E. coli, UniProt P33226 21-390, looked up)
chain: VAIGIVIGIALIVLPHVGIKVTSTTEFCVSCHSMQPVYEEYKQSVHFQNASGVRAECHDCHIPPDIPGMVKRKLEASNDIYQTFIAHSIDTPEKFEAKRAELAEREWARMKENNSATCRSCHNYDAMDHAKQHPEAARQMKVAAKDNQSCIDCHKGIAHQLPDMSSGFRKQFDELRASANDSGDTLYSIDIKPIYAAKGDKEASGSLLPASEVKVLKRDGDWLQIEITGWTESAGRQRVLTQFPGKRIFVASIRGDVQQQVKTLEKTTVADTNTEWSKLQATAWMKKGDMVNDIKPIWAYADSLYNGTCNQCHGAPEIAHFDANGWIGTLNGMIGFTSLDKREERTLLKYLQMNASDTAGKAHGDKKEEK
modifications: heme c at the five CXXCH motifs (iron saturation about 75% of five hemes)
notes: TorC, pentahemic c-type cytochrome of E. coli, lacking the N-terminal 20 amino acid membrane anchor (first 60 nucleotides of the gene deleted); also called soluble periplasmic TorC; source: E. coli HM125 with pTorC-SS and pEC86 (ccmABCDEFGH), hemin added, purified (Ni-NTA, gel filtration)
B2: TorA with soluble TorC (physiological electron transfer assay) (Escherichia coli K-12) (protein)
chain: AQAATDAVISKEGILTGSHWGAIRATVKDGRFVAAKPFELDKYPSKMIAGLPDHVHNAARIRYPMVRVDWLRKRHLSDTSQRGDNRFVRVSWDEALDMFYEELERVQKTHGPSALLTASGWQSTGMFHNASGMLAKAIALHGNSVGTGGDYSTGAAQVILPRVVGSMEVYEQQTSWPLVLQNSKTIVLWGSDLLKNQQANWWCPDHDVYEYYAQLKAKVAAGEIEVISIDPVVTSTHEYLGREHVKHIAVNPQTDVPLQLALAHTLYSENLYDKNFLANYCVGFEQFLPYLLGEKDGQPKDAAWAEKLTGIDAETIRGLARQMAANRTQIIAGWCVQRMQHGEQWAWMIVVLAAMLGQIGLPGGGFGFGWHYNGAGTPGRKGVILSGFSGSTSIPPVHDNSDYKGYSSTIPIARFIDAILEPGKVINWNGKSVKLPPLKMCIFAGTNPFHRHQQINRIIEGLRKLETVIAIDNQWTSTCRFADIVLPATTQFERNDLDQYGNHSNRGIIAMKQVVPPQFEARNDFDIFRELCRRFNREEAFTEGLDEMGWLKRIWQEGVQQGKGRGVHLPAFDDFWNNKEYVEFDHPQMFVRHQAFREDPDLEPLGTPSGLIEIYSKTIADMNYDDCQGHPMWFEKIERSHGGPGSQKYPLHLQSVHPDFRLHSQLCESETLRQQYTVAGKEPVFINPQDASARGIRNGDVVRVFNARGQVLAGAVVSDRYAPGVARIHEGAWYDPDKGGEPGALCKYGNPNVLTIDIGTSQLAQATSAHTTLVEIEKYNGTVEQVTAFNGPVEMVAQCEYVPASQVKS
notes: recombinant TorA plus soluble TorC (first 20 residues, membrane anchor, deleted); with Cytochrome c-type protein TorC
B3: TorA (TMAO reductase) (Escherichia coli K-12) (protein)
chain: B2 chain
notes: recombinant from plasmid pTorAD (torAD in pJF119EH), expressed in E. coli; bis-MGD enzyme; monomer; also purified as TorAD2 complex; first 48 and last 5-10 residues not seen in crystal
B4: TorD (natural protein, E. coli, UniProt P36662 1-199, looked up)
chain: MTTLTAQQIACVYAWLAQLFSRELDDEQLTQIASAQMAEWFSLLKSEPPLTAAVNELENRIATLTVRDDARLELAADFCGLFLMTDKQAALPYASAYKQDEQEIKRLLVEAGMETSGNFNEPADHLAIYLELLSHLHFSLGEGTVPARRIDSLRQKTLTALWQWLPEFVARCRQYDSFGFYAALSQLLLVLVECDHQNR
notes: source: co-expressed from plasmid pTorAD and co-purified with TorA
B5: TorSN (periplasmic detection domain of TorS) (domain or fragment, E. coli, UniProt P39453 30-332, looked up)
chain: NLRFISQVEKDNTQALIPTMNMARQLSEASAWELFAAQNLTSADNEKMWQAQGRMLTAQSLKINALLQALREQGFDTTAIEQQEQEISRSLRQQGELVGQRLQLRQQQQQLSQQIVAAADEIARLAQGQANNATTSAGATQAGIYDLIEQDQRQAAESALDRLIDIDLEYVNQMNELRLSALRVQQMVMNLGLEQIQKNAPTLEKQLNNAVKILQRRQIRIEDPGVRAQVATTLTTVSQYSDLLALYQQDSEISNHLQTLAQNNIAQFAQFSSEVSQLVDTIELRNQHGLAHLEKASARGQYS
notes: TorS, sensor histidine kinase of E. coli, periplasmic detection domain; also called periplasmic TorS; source: from plasmid pET-Sp (pET21), purified following published procedures [7]

What was measured:
soluble TorC = target: T1, soluble TorC (Escherichia coli, UniProt P33226); assay: UV-visible spectroscopy, reduction of TorC; format: biochemical; conditions: electron donor, anaerobic
T1 construct: expressed in E. coli HM125 with ccmABCDEFGH; 43 kDa monomer

TorA (Escherichia coli) = TorA (Escherichia coli) (UniProt P33225); conditions: cited from earlier work
TorA (TMAO reductase) [1] = target: T2, TorA (TMAO reductase) (E. coli, UniProt P33225 40-848); assay: cell-based or functional assay
T2 sequence: B2 chain

[2] = target: TorAD2 (TorA purified in a 1:2 stoichiometry with TorD) (E. coli) (UniProt P33225); assay: SPR; Biacore T200, CM5 chip, target immobilised via amine coupling, 25 °C, 30 µL/min, 20 mM phosphate, 150 mM NaCl, 0.005% Tween 20, pH 7.4; global fit, 1:1 binding; mean of three measurements
apo-TorA = target: T3, apo-TorA (E. coli, UniProt P33225 40-848); assay: as above; conditions: both partners purified
T3 construct: TorA, TMAO reductase of E. coli, apo form; Apo form (without cofactor); source: purified following published procedures [31]
T3 sequence: B2 chain

[3] = target: TorAD2 (TorA purified in a 1:2 stoichiometry with TorD) (E. coli) (UniProt P33225); assay: MST; Monolith NT.115, TorAD2 labelled with NT-647-NHS at constant concentration (5 nM), soluble TorC titrated, 25 °C, premium capillaries
GC-MS of derivatized TMA = substrate: C[N+](C)(C)[O-]; assay: GC-MS of derivatized TMA; format: biochemical, Escherichia coli; conditions: 5 µM menadiol as electron donor via soluble TorC, 100 mM Sörensen buffer pH 6.5, 37 °C, anaerobic
From the text: GC-MS of derivatized TMA on TorA with soluble TorC (physiological electron transfer assay)

purified protein = substrate: C[N+](C)(C)[O-]; assay: purified protein; format: biochemical, Escherichia coli; conditions: 400 µM benzyl viologen (dithionite-reduced), 100 mM Sörensen buffer pH 6.5, 37 °C, anaerobic, 3 nM TorA
TorA (TMAO reductase) [4] = target: T2, TorA (TMAO reductase); assay: SEC; TorA co-purified with TorD (plasmid pTorAD); TorAD2 complex of 136.5 kDa on analytical gel filtration; conditions: partners not purified
[5] = target: T4, apo-TorC (soluble TorC without hemes) (E. coli, UniProt P33226 21-390); assay: SPR; Biacore T200, CM5 chip, target immobilised via amine coupling, 25 °C, 30 µL/min, 20 mM phosphate, 150 mM NaCl, 0.005% Tween 20, pH 7.4; global fit, 1:1 binding; mean of three measurements; conditions: both partners purified
T4 construct: TorC of E. coli lacking the N-terminal 20 amino acid membrane anchor, made without heme insertion; also called soluble apo-TorC; source: E. coli, 'soluble torC' gene expressed without the ccm gene cluster (pEC86) and without hemin, purified
T4 sequence (looked up): B1 chain

[6] = target: B1; assay: as above; conditions: both partners purified

Molecule: Cc1cc(O)c2ccccc2c1O [menadiol]
- UV-visible spectroscopy, reduction of TorC (soluble TorC): menadiol can reduce soluble TorC, which can be re-oxidized by TorA

Molecule: TorC TorCN (from UniProt P33226)
- Kd (TorA (Escherichia coli)): 45 nM

Molecule: B1
- kcat of TMAO reduction by TorA with menadiol and soluble TorC as electron donors (TMA quantified by GC-MS) (TorA (TMAO reductase) [1]): 0.145 s⁻¹
- Kd [2]: 309 nM
- Kd (apo-TorA): 266 nM
- Kd [3]: 1070 nM

Molecule: B2
- Km (GC-MS of derivatized TMA): 9.8 ± 2.53 µM
- kcat (GC-MS of derivatized TMA): 0.145 ± 0.05 s⁻¹

Molecule: B3
- Km (purified protein): 22.06 ± 0.75 µM
- kcat (purified protein): 228 ± 46.3 s⁻¹

Molecule: B4
- stoichiometry N (TorA (TMAO reductase) [4]): 2 TorD per TorA

Molecule: B5
- Kd [5]: 943 nM
- Kd [6]: 1030 nM
